This is an account of results in publication PMC12785664, “Structure-Functional Examination of Cysteine Synthase A (CysK) from Limosilactobacillus reuteri LR1” (International Journal of Molecular Sciences, 2025).

The subject of one data set is CC(=O)OC[C@H](N)C(=O)O. In words: purified protein. Particulars: saturating sulfide, 5 µM PLP, 10 mM HEPES pH 7.5.
Data set [1] deals with Cysteine synthase A (CysK) from Limosilactobacillus reuteri LR1 with His-tag on the N-terminus (Limosilactobacillus reuteri LR1). In words: SEC; analytical gel filtration, HiLoad 16/600 Superdex 200 pg, 1 mg of sample, calibrated with Gel Filtration Calibration Kit HMW; monomer to dimer.
Data set [2] addresses T1, LreCysK (cysteine synthase A from Limosilactobacillus reuteri LR1, His-tag at N-terminus) (Limosilactobacillus reuteri, UniProt A0ABF7PP24).
T1 construct: gene cysK
T1 sequence (A0ABF7PP24 2-307): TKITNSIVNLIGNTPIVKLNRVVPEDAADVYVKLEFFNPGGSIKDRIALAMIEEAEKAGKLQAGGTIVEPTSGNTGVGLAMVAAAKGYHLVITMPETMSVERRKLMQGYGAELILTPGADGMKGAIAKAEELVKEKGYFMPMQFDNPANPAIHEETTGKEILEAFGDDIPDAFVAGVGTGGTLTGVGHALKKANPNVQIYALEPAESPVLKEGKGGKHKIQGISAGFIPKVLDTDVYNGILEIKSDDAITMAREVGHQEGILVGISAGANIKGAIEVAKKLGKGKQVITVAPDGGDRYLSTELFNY
The experiment in a line: differential scanning calorimetry, with versus without added PLP. The data set is classed as binding. The following applies: 1.0 mM PLP, 0.1 M Na-phosphate pH 7.0, 1 °C/min; two calorimetric domains, domain 1 given. The source says: differential scanning calorimetry, with versus without added PLP on LreCysK (cysteine synthase A from Limosilactobacillus reuteri LR1, His-tag at N-terminus)
(In DSC, transitions show as peaks or steps in heat flow.)

Text for CC(=O)OC[C@H](N)C(=O)O: HILIC HPLC determination of cysteine, nonlinear regression on LreCysK (cysteine synthase A from Limosilactobacillus reuteri LR1, His-tag at N-terminus)

For “LreCysK (cysteine synthase A from Limosilactobacillus reuteri LR1, His-tag at N-terminus) (Limosilactobacillus reuteri)”, in the data set on CC(=O)OC[C@H](N)C(=O)O, the Km – broadly, the substrate concentration at which the rate is half of its maximum – is on record as 3.8 ± 0.6 mM; the kcat (usually the number of substrate molecules converted per active site and unit of time at saturation) came to 681 ± 45 s⁻¹; the kcat/Km (commonly the second-order rate constant that governs catalysis at low substrate concentration) is 179000 M⁻¹ s⁻¹. With “Cysteine synthase A (CysK) from Limosilactobacillus reuteri LR1 with His-tag on the N-terminus (enzyme)”, the stoichiometry N (commonly the number of molecules, sites or subunits per partner or assembly) in data set [1] was determined as 2. For the molecule `Cc1ncc(COP(=O)(O)O)c(C=O)c1O` [Pyridoxal-5 phosphate], in data set [2], the “Tm, °C” value came to 80.1 °C.
